We go through two substances from patent US20100227772.

The data set relates to Antennapedia homeodomain (YPWM motif + homeodomain, Antp residues 297-364 in plasmid pAop3). Conditions: FCCS.

Read-outs that look alike come from different tables or passages of the source.

As for HB1 (36 bp), the Kd (usually a measure of binding affinity in units of concentration) (average of 10 saturation curves, single curve of FIG. 2 gives 6.3 nM) turned out to be 3.6 nM.
For BS2 (16 bp), the Kd (average of 3 saturation curves, single curve of FIG. 3 gives 8.6 nM) stood at 5.1 nM.
